In series [1] the test system is NCI-H292 lung cancer cell line. The series can be described thus: MTS viability of cells transfected with siFra-1 or scramble control (siC). The series is classed as cell-based, human. To be noted: 48 h. Here is the method:
Assays were performed on 96-well microtiter plates after plating of 7.7×10^4 cells/well. […] Cell viability was measured by the colorimetric methoxy-tetrazolium salt (MTS) Assay, CellTiter 96 Aqueous One Solution Cell Proliferation Assay (Promega), per the manufacturer's recommendations. MTS is a tetrazolium salt that undergoes a color change caused by its bioreduction of MTS into a water-soluble formazan. The conversion of MTS into the aqueous-soluble formazan is accomplished by dehydrogenase enzymes found in active mitochondria, with reaction occurring only in living cells. The quantity of formazan product measured by the amount of 490-nm light absorbance is directly proportional to the number of living cells in culture. Briefly, 20 μl of MTS reagent was added per well, and plates incubated at 37° C. for 2-3 h. Finally, the absorbance of each well was read at 490 nm and 650 nm. ΔOD from these two wavelengths were reported as the corrected viability. Fold changes were calculated with respect to the control as a measure of cell viability.
siFra-1 RNA interference (RNAi) duplexes were constructed from sequence information on mature mRNA extracted from the EST database available through the National Center for Biotechnology Information internet site using the open frame region from the cDNA sequence of exon 2 of the Fra-1 gene. The siRNA pool sequences targeting Fra-1 corresponded to the 107-126, 124-143, 230-249 coding regions relative to the first nucleotide of the start codon. The sequences were BLAST-searched (NCBI database) against EST libraries to ensure the specificity of the siRNA molecule. The siRNA duplexes or a scramble control were transfected into cancer lines using Lipofectamine 2000 (Invitrogen) as recommended by the manufacturer. Cells were incubated with complexes overnight, and the medium was replaced the next day. Cells were allowed to recover for 48 hours before treatments.
Cells were transfected with siFra-1 or scramble control (siC) and left to rest for 48 h before treatment. […] The PPARγ inhibitor GW9662 (2 μM) was added to observe the influence of PPARγ.

For series [2] the following is noted: i.v. 2.5 mg/kg, twice a week for 2 weeks; previous studies, personal communication; cited from earlier work.

The values below come from patent US20090202513A1, “RIBONUCLEASE AND THIAZOLIDINEDIONE COMPOUNDS AND THEIR USE IN METHODS TO TREAT CANCER” (The University of Vermont and State Agriculture College, priority 2008, published 2009).

“Also recorded” adds a separate entry of the source.

In the case of `O=C(Nc1ccccc1)c1cc([N+](=O)[O-])ccc1Cl` [GW9662, reference compound], in series [1] (GW9662 2 μM added to the combination), the “influence of PPARγ antagonist on the synergistic effect of ranpirnase and rosiglitazone” value is “did not significantly modify the synergistic effect of ranpirnase and rosiglitazone”.

B1: ranpirnase (protein, UniProt P22069 1-104, looked up)
Protein P-30: QDWLTFQKKHITNTRDVDCDNIMSTNLFHCKDKNTFIYSRPEPVKAICKGIIASKNVLTTSEFYLSDCNVTSRPCKYKLKKSTNKFCVTCENQAPVHFVGVGSC
notes: RNase extracted from Rana pipiens, the Northern leopard frog; registered trademark name ONCONASE™
For B1, in series [1] (ranpirnase 0.1, 1 or 10 μg/mL, rosiglitazone 10 or 20 μM), the “effect of Fra-1 knock-down (siFra-1 vs siC) on efficacy / cell killing of the single drug” value is listed as “significantly increased the efficacy of ranpirnase alone at all concentrations; also recorded: increases cell killing by ranpirnase (0.1, 1, or 10 μg/mL) in a concentration-dependent manner”. Moreover, the “cell viability (MTS)” value in series [1] (ranpirnase 0.1, 1 or 10 μg/mL) is listed as “reduced viability in a dose-dependent manner”. Also, in series [2], the “apoptosis induction in vivo” value is on record as “effective in producing apoptosis” and the “toxicity to the animals” value is reported as “non-toxic to the animals”.
